# Measured values published in PMC10401102, “Repurposing CRISPR/Cas to Discover SARS‐CoV‐2 Detecting and Neutralizing Aptamers”.
# B1: #5-2-15 (structured_RNA)
# RNA: ACUUGGCCAAUUACCGUAGUUUUUGUAGUCUGCAGGGCCAAGUG
# B2: #5-2-15-2'-F-O (structured_RNA)
# RNA: B1 RNA
# modifications: 2'-F at pyrimidines, 2'-O-methyl at purines
# B3: NC-RNA apt (ssRNA)
# RNA: ACUUGGCCAUUUUUCUUUUUCUUUUUCUUUUUCUGCAGGGCCAAGUG
# B4: #2-1-18 (structured_RNA)
# RNA: ACUUGGCCACGUCGACUGAAAUCCUCUUCCUGCAGGGCCAAGUG
# B5: #2-1-18-2'-F-O (structured_RNA)
# RNA: B4 RNA
# modifications: 2'-F at pyrimidines, 2'-O-methyl at purines
# Legend:
# [1] = biological target: T1, SARS-CoV-2 Spike RBD (original) (SARS-CoV-2 (original), UniProt P0DTC2 319-541); assay: ELONA; 25 C
# [2] = biological target: T1, SARS-CoV-2 Spike RBD (original); assay: EMSA
binder,measurement,setting,value
B1,Kd,[1],24.7 nM
B2,binding result,[2],binds
B3,binding result,[2],no binding
B4,Kd,[1],16.8 nM
B5,binding result,[2],binds
